From patent US20210206813

B1: Src kinase (protein)
chain: MSKPQTQGLAKDAWEIPRESLRLEVKLGQGCFGEVWMGTWNGTTRVAIKTLKPGTMSPEAFLQEAQVMKKLRHEKLVQLYAVVSEEPIYIVTEYMSKGSLLDFLKGETGKYLRLPQLVDMAAQIASGMAYVERMNYVHRDLRAANILVGENLVCKVADFGLARLIEDNEYTARQGAKFPIKWTAPEAALYGRFTIKSDVWSFGILLTELTTKGRVPYPGMVNREVLDQVERGYRMPCPPECPESLHDLMCQCWRKEPEERPTFEYLQAFLEDYFTSTEPQYQPGENL
B2: protein tyrosine phosphatase 1B (PTP1B) (protein)
chain: MEMEKEFEQIDKSGSWAAIYQDIRHEASDFPCRVAKLPKNKNRNRYRDVSPFDHSRIKLHQEDNDYINASLIKMEEAQRSYILTQGPLPNTCGHFWEMVWEQKSRGVVMLNRVMEKGSLKCAQYWPQKEEKEMIFEDTNLKLTLISEDIKSYYTVRQLELENLTTQETREILHFHYTTWPDFGVPESPASFLNFLFKVRESGSLSPEHGPVVVHSSAGIGRSGTFCLADTCLLLMDKRKDPSSVDIKKVLLEMRKFRMGLIQTADQLRFSYLAVIEGAKFIMGDSSVQDQWKELSHEDLEPPPEHIPPPPRPPKRILEPHN

How the values were obtained:
[1] = molecular target: MidT substrate domain fused to the omega subunit of RNA polymerase
[2] = molecular target: p130cas substrate domain fused to the omega subunit of RNA polymerase

Protein | luminescence (LuxAB), bacterial two-hybrid system with induced Src [1] | luminescence (LuxAB), bacterial two-hybrid system with induced Src [2] | difference in luminescence between systems containing PTP1B or PTP1B (C215S) [1]
B1 | luminescence increased most prominently for p130cas and MidT | luminescence increased most prominently for p130cas and MidT | 
B2 |  |  | The difference in luminescence between systems containing PTP1B or PTP1B (C215S) was greatest for MidT
